Where a chain is given by its changes, count along the chain named.
Legend:
[1] = target: T1, 562(P4-P3′)336 factor VIIIa mutant
T1 chain 1: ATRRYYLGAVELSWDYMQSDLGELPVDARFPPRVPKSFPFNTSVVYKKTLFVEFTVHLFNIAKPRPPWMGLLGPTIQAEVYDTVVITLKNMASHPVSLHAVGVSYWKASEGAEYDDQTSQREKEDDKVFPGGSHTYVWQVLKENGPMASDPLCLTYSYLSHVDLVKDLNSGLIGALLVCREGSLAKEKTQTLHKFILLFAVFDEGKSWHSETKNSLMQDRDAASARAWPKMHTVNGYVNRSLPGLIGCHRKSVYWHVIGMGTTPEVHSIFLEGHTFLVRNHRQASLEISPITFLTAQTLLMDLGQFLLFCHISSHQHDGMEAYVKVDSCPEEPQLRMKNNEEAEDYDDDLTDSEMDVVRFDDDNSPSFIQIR
T1 chain 2: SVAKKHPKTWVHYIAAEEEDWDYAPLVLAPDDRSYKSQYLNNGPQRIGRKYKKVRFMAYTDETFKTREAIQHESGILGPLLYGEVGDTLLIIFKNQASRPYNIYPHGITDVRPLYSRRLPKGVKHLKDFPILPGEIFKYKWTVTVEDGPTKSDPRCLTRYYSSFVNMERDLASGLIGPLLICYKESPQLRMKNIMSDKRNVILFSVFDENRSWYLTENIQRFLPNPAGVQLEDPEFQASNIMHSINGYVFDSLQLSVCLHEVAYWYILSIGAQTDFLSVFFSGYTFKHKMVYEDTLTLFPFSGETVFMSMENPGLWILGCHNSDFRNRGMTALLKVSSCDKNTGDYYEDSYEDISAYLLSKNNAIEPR
T1 chain 3: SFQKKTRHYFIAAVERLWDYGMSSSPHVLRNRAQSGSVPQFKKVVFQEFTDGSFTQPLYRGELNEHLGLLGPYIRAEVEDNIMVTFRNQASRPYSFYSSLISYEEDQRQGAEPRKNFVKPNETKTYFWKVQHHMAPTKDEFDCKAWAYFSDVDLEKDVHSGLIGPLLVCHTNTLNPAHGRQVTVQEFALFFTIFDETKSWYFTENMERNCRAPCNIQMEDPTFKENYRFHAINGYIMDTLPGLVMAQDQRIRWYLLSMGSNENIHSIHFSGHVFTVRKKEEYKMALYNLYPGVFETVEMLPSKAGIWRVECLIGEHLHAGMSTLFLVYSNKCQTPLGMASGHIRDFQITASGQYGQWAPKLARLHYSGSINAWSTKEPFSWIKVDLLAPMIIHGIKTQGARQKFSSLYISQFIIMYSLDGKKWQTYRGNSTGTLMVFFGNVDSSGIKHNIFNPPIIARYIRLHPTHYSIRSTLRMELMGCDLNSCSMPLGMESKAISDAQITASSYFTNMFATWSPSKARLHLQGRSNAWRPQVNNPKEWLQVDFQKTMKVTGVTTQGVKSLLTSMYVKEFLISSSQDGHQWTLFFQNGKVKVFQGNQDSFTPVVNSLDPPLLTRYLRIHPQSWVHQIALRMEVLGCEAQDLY

[2] = target: T2, 562(P4-P3′)336 factor VIII mutant (procofactor)
T2 chain 1: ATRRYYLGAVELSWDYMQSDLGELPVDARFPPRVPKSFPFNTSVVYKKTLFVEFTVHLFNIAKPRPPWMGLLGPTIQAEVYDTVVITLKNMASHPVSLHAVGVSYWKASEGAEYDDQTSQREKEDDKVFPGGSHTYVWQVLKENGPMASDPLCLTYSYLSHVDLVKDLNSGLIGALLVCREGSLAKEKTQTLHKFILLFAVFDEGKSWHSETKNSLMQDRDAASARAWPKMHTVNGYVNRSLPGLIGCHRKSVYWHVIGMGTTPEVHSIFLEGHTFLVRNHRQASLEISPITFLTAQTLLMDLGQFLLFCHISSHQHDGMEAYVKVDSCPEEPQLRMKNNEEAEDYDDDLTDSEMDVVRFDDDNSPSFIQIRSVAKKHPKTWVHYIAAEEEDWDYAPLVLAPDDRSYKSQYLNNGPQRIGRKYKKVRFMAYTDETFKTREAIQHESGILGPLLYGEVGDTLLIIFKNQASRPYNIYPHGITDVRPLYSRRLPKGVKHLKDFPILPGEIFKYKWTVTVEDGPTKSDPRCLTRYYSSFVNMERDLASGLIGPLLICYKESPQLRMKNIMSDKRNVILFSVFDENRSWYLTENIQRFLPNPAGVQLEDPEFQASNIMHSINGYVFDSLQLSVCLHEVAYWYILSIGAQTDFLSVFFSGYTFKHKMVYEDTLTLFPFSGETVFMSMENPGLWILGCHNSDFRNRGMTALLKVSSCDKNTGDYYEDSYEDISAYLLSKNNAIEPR
T2 chain 2: T1 chain 3

[3] = target: T3, 562(P4-P2)336 factor VIII mutant (procofactor)
T3 chain 1: T2 chain 1 with M563G, K564N, N565Q
T3 chain 2: T1 chain 3

B1: human activated protein C (protein)
chain 1: ANSFLEELRHSSLERECIEEICDFEEAKEIFQNVDDTLAFWSKHVDGDQCLVLPLEHPCASLCCGHGTCIDGIGSFSCDCRSGWEGRFCQREVSFLNCSLDNGGCTHYCLEEVGWRRCSCAPGYKLGDDLLQCHPAVKFPCGRPWKRMEKKRSHL
chain 2: LIDGKMTRRGDSPWQVVLLDSKKKLACGAVLIHPSWVLTAAHCMDESKKLLVRLGEYDLRRWEKWELDLDIKEVFVHPNYSKSTTDNDIALLHLAQPATLSQTIVPICLPDSGLAERELNQAGQETLVTGWGYHSSREKEAKRNRTFVLNFIKIPVVPHNECSEVMSNMVSENMLCAGILGDRQDACEGDSGGPMVASFHGTWFLVGLVSWGEGCGLLHNYGVYTKVSRYLDWIHGHIRDKEAPQKSWAP
A1 Cleavage (nM A1/min/nM APC) (nM A1/min/nM APC) [1]: 7.3
A2 Cleavage (nM A2/min/nM APC) (nM A2/min/nM APC) [1]: 1.9
fold increase of A2 subunit cleavage rate [1]: the rate of A2 subunit cleavage for 562(P4-P3′)336 mutant was increased 4 fold
A2 Cleavage (nM A2/min/nM APC) (nM A2/min/nM APC) [2]: 2.7
A2 Cleavage (nM A2/min/nM APC) (nM A2/min/nM APC) [3]: 0.6

— patent publication US20090118185A1 (UNIVERSITY OF ROCHESTER, published 2009)
